Here are results for 1 molecule from CN112079917A (CANVEST WUHAN BIOTECHNOLOGY CO LTD, dated 2020).

For one assay, the target named is BSA (UniProt P02769 25-607). The experiment in a line: ELISA, IgG form. Background: An ELISA detects its analyte on a solid surface through an enzyme-linked reagent.
For assay [1], the target named is 17SF HA毒株 (A/Guangdong/17SF003/2016) HA蛋白 (influenza A virus A/Guangdong/17SF003/2016 (H7N9)). As to the kind of experiment: ELISA, IgG form on HA protein.
The target in assay [2] is SH02 HA毒株 (A/Shanghai/2/2013 H7N9) HA蛋白 (influenza A virus A/Shanghai/2/2013 H7N9). The experiment in a line: ELISA, IgG form on HA protein.

Sequence of BSA (P02769 25-607 limits assumed): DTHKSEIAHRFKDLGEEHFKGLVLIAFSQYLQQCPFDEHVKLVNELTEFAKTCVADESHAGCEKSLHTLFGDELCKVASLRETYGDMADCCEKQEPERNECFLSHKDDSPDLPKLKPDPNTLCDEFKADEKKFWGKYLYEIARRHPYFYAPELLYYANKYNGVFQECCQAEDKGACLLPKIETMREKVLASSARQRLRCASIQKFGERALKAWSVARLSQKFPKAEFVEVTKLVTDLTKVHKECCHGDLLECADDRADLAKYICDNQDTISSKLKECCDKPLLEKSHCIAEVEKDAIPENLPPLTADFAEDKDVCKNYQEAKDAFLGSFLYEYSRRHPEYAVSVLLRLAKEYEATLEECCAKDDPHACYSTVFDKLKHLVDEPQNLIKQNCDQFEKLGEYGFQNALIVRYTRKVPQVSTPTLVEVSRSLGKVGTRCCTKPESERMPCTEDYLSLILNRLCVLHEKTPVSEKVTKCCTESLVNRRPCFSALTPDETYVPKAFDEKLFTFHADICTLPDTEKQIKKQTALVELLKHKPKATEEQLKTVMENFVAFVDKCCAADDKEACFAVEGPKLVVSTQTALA

B1: H7N9病毒特异性识别抗体P51H08 (IgG形式) (antibody, V domains shown)
VH: QVQLVQSGGGLVQPGGSMRLSCAASGFTFSSYAMSWVRQAPGKGLEWVSGISGSGGSTYYADSVKGRFTISRDNSKNTLHLPMNSLRADDTAVYYCAKDLNWWPDYWGQGTLVTVSS
VL: SYVLTQPPSVSVAPGKTASMTCGGNNIGSKRVHWYQQKPGQAPVLVVYNDNERPSAIPERFSGSNSGNTATLTVSRVEAGDEADYYCLVWDSSSLHRVFGGGTKLTVLG
On to B1, for which the binding result with BSA is on record as “no binding”. For the same molecule, the results for the EC50 in assay [1] and in assay [2] were 3.56 nM and 1.65 nM, respectively.

The EC50 is the concentration needed to bring the measured effect to its halfway point.
